Source: paper PMC4072508, “Genome-Wide Prediction and Validation of Peptides That Bind Human Prosurvival Bcl-2 Proteins” (PLoS Computational Biology, 2014)

molecular target: Bcl-xL, Q07817; assay: peptide SPOT array, c-Myc-tagged receptor at 1 uM or 100 nM, anti-c-Myc-Cy3
Sequence (Q07817 1-209): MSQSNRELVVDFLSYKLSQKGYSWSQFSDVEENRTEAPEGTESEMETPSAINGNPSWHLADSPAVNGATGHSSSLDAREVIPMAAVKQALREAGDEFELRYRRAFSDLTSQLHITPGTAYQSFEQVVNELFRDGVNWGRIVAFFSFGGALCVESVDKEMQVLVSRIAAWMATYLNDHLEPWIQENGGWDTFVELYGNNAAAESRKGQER

SPOT signal as a fraction of Bim BH3's signal on the same receptor and array	Binder
0.03	VDKLKTLSETLLEMSSLFQRSGSGQM [ABCA13]
0.02	AERHKQEADDIVRVAKTANDTSTEAY [LAMC1]
0.06	IERMIHFGRELQAMSEQLRRDCGKNT [RANBP9]
0.05	PEDLQDVGWFDHKLSQQILKKEKEKK [TLR5]
0.47	HRNTRNLAAFLGKALDLLRFPVKQLY [RP1L1]
0.03	ILRHKDIIDDLVKSGHKIMTACSEEE [DST]
0.03	LVNIRKDTLRLVKCAEEVKSPGEEAS [RNF157]
0.02	SRELEEISERLEEAGGATSAQIEMNK [MYH2]
0.03	RLRHDEIITLLKNVGERVVLEVEYEL [GRIP2]
0.02	SSDVIAVCQSLRQMAEKCQQDPESCW [MMS19]
0.02	AGDVEGFCSSIHDTSVSAGFRALYEE [KLHL15]
0.9	DTIFHRAAVRLRDLGGAILRHARRQA [BRPF3]
1.11	HRTSNVLTLSDKRFANFSGGKITKDV [USP36]
0.46	PDGLLEFAKRLERWGRGAFGHLRLFQ [LRRC41]
0.07	AKIIGNNVKKLQKFASTVKMWVFEET [GPD1L]
0.71	RYRHGAPAEQDRHLADMLTTKWATLQ [PLEKHH1]
0.39	RAELTGLARRLADRLRKLQETNLRAV [RIMBP3]
0.03	SDDVQKIVEELQSLSKMLLKDVEEEK [IL31]
0.02	ARELEEISERLEEASGATSAQIEMNK [MYH13]
0.05	PFNIQDYAEALKNYAASIYNLSKKHD [NAALAD2]

The next lines start with the binder.

Binder	SPOT signal as a fraction of Bim BH3's signal on the same receptor and array
KFRHDEIISLLKNVGERVVLEVEYEL [GRIP1]	0.03
LENYYRLADDLSNAARELRVLIDDSQ [MRS2]	0.03
DFMGRTFAKPDVKMADEAYCPPRFPP [OTOF]	0.03
LFRIRLVCTILDTCGQYFDRGSSKRK [UPF2]	0.24
LKELDLSGNSLSHSLVKSLCKTLRRP [NLRP1]	0.28
QNSRDPFCKAIEEVAQDLDLRIKNII [C12orf48]	0.03
LARIRRRIKWLQDGSQSLFGRLHNDC [VWA3B]	0.56
RERLRQSGERLRQSGERLRQSGERFK [MURC]	0.55
NNDLSHIAGKLTYASQKYKNHIGTEI [HFM1]	0.12
NKQLRKETESLRKIALEAQKKAKVKI [SCLT1]	0.5
VKAVDPTSGQLYGLARELSDEIQVQV [NUP210]	0.02
KANLEKVSRTLEDQANEYRVKLEEAQ [MYH6]	0.02
LDDIEFFITKLQKAAEAFSELSKRKK [EPS8]	0.13
RGRTRGWVQTDARMSRRTRGPVERAA [C6orf223]	0.91
ELLRLRQHWKLRKVLDKILGDLSYRS [MED17]	0.46
MGVLAAAARCLVRGLDRMSKWTSKRG [MRPL41]	0.42
EQKVKQKAADLLEMATFLQKRVEEEE [C10orf79]	0.02
DQEEACASRQDHSLASFSTVTARRNP [INCA1]	0.04
FLRINMVSMKLLAYAMDFWSKGQLKA [PANK1]	0.11
RRFAKTIGKVDMQYADILSKDFPAYC [UNC13B]	0.45
